Assay results published in publication PMC10318062 (Nature Communications, 2023).
Where a chain is given by its changes, count along the chain named.

B1: COVA1-07 (antibody, V domains shown)
VH: QVQLVESGAEVKKPGSSVKVSCKASGGTLSSYAITWVRQAPGQGLEWVGGIIPIFGTANYAQKFQGRVTITADESTSTAYMELSSLRSEDTAVYYCARVGAYDSSGYSNDYWGQGTLVTVSS
VL: DIQLTQSPATLSLSPGERATLSCRASQSVSSYLAWYQQKPGQAPRLLIYDASNRATGIPARFSGSGSGTDFTLTISSLEPEDFAVYYCQQRSNWPPRVTFGGGTKVEIK
B2: COVA2-14 (antibody, V domains shown)
VH: B1 VH with E6Q, L29F, T35I, V48M, A72T, G100R, A101Y, S108Y, N109E
VL: B1 VL with D1E, Q3V, K39E, R97M, V98Y, G102Q
B3: COVA2-18 (antibody, V domains shown)
VH: EVQLVQSGAEVKKPGSSVKVSCKASGGTFSSYAISWVRQAPGQGLEWMGGIIPIFGTTNYAQKFQGRVTITTDESTSTAYMELSSLRSEDTAVYYCARVYSYDSSGYYLEYWGQGTRVTVSS
VL: B1 VL with D1E, Q3V, R97S, V98I, G102Q, K105R, V106L
B4: C144 (antibody, V domains shown)
VH: EVQLVESGGGLIQPGGSLRLSCAASGFTVSNNYMSWVRQAPGKGLEWVSVIYSGGSTYYADSVKGRFTISRDKSKNTLYLQMNRLRAEDTAVYYCAREGEVEGYNDFWSGYSRDRYYFDYWGQGTLVTVSS
VL: QSALTQPASVSGSPGQSITISCTGTSSDVGGYNYVSWYQQHPGKAPKLMIYDVSNRPSGVSNRFSGSKSGNTASLTISGLQAEDEADYYCSSYTSSSTRVFGTGTKVTVL
B5: BD-629 (antibody, V domains shown)
VH: EVQLVESGGGLIQPGGSLRLSCAASEFIVSRNYMSWVRQAPGKGLEWVSVIYSGGSTYYADSVKGRFTISRDNSKNTLNLQMNSLRAEDTAVYYCARDYGDYYFDYWGQGTLVTVSS
VL: EIVLTQSPGTLSLSPGERATLSCRASQGVSSFLAWYQQKPGQAPRLLIHGASSRATGIPDRFSGSGSGTDFTLTITRLEPEDFAVYYCQQYGSSPRTFGQGTKVEIK
B6: CC12.3 (antibody, V domains shown)
VH: B5 VH with E1Q, E26G, I28T, R31S, Y58F, N76S, N79Y, A87V, Y99F, Y102F
VL: not shown
B7: COVA2-10 (antibody, V domains shown)
VH: EVQLLESGGGLVQPGGSLKLSCAASGFTFSSYAMSWVRQAPGKGLEWVSAISGSGSNTYYADSVKGRFTISRDNSKNTLYLQMNSLRAEDTAVYYCAKGLRGQQLVIPTEYFQHWGQGTLVTVSS
VL: not shown
B8: C002 (antibody, V domains shown)
VH: EVQLVESGGGVVQPGRSLRLSCAASGFTFSIYGMHWVRQAPGKGLEWVAVISYDGSNKYYADSVKGRFTISRDNSKNTLYLQMNSLRAEDTAVYYCAKEGRPSDIVVVVAFDYWGQGTLVTVSS
VL: not shown
B9: COVA2-28 (antibody, V domains shown)
VH: EVQLVESGGGVVQPGRSLRLSCAASGFTFSSYGMHWVRQAPGKGLEWVAVIWYDGSNKYYADSVKGRFTISRDNSKNTLYLQMDSLRAEDTAMYYCAKDKAPPCSSGWYYFDYWGQGTLVTVSS
VL: not shown
B10: C110 (antibody, V domains shown)
VH: QVQLQQSGAEVKKPGESLKISCKGSGYSFTSYWIGWVRQMPGKGLEWMGIIYPGDSDTRYSPSFQGQVTISADKSISTAYMQWSSLKASDTAMYYCARSFRDDPRIAVAGPADAFDIWGQGTMVTVSS
VL: DIQMTQSPSTLSASVGDRVTITCRASQSISYWLAWYQQKPGKAPKLLIYQASSLESGVPSRFSGSESGTEFTLTISSLQPDDFATYYCQQYNSYPYTFGQGTKLEIK
B11: C105 (antibody, V domains shown)
VH: QVQLVESGGGLIQPGGSLRLSCAASGFTVSSNYMSWVRQAPGKGLEWVSVIYSGGSTYYADSVKGRFTISRDNSKNTLYLQMNSLRAEDTAVYYCARGEGWELPYDYWGQGTLVTVSS
VL: QSALTQPPSGSGSPGQSVTISCTGTSSDVGGYKYVSWYQQHPGKAPKLMIYEVSKRPSGVPDRFSGSKSGNTASLTVSGLQAEDEADYYCSSYEGSNNFVVFGGGTKLTVL
B12: COVA1-18 (antibody, V domains shown)
VH: B11 VH with Q1E, I12V, G98V, G100W, W101A, E102A, L103A, P104G, Y105T, D106F
VL: QSALTQEPSLTVSPGGTVTLTCGSSTGAVTSGHYPYWFQQKPGQAPRTLIYDTSNKRSWTPARFSGSLLGGKAALTLSGAQPEDEAEYYCLLSYSGVWVFGGGTKLTVL
B13: C119 (antibody, V domains shown)
VH: QVQLVQSGAEVKKPGASVKVSCKASGYTFTSYYMHWVRQAPGQGLEWMGIINPSGGSTSYAQKLQGRVTMTRDTSTSTVYMELSSLRSEDTAVYYCARANHETTMDTYYYYYYMDVWGKGTTVTVSS
VL: QSALTQPASVSGSPGQSITISCTGTSSDVGGYKYVSWYQRHPGKAPKLMIYDVSNRPSGVSNRFSGSKSGNTASLTISGLQAEDEADYYCSSYTSSSTSVVFGGGTQLTVL
B14: BD-604 (antibody, V domains shown)
VH: EVQLVESGGGLIQPGGSLRLSCAASGIIVSSNYMTWVRQAPGKGLEWVSVIYSGGSTFYADSVKGRFTISRDNSKNTLYLQMSSLRAEDTAVYYCARDLGPYGMDVWGQGTTVTVSS
VL: DIQLTQSPSFLSASVGDRVTITCRASQGISSDLAWYQQKPGKAPNLLIYAASTLQSGVPSRFSGSGSGTEFTLTISSLQPEDFATYYCQQLNSDLYTFGQGTKLEIK
B15: CC12.1 (antibody, V domains shown)
VH: B14 VH with I27L, I28T, T35S, S83N, G100D, P101V, M104L
VL: DIVMTQSPSFLSASVGDRVTITCRASQGISSYLAWYQQKPGKAPKLLIYAASTLQSGVPSRFSGSGSGTEFTLTISSLQPEDFATYYCQQLNSYPPKFTFGPGTKVEIK
B16: BD-236 (antibody, V domains shown)
VH: EVQLVESGGGLIQPGGSLRLSCAASGITVSSNYMSWVRQAPGKGLEWVSVIYSGGSTDYADSVKGRFTISRDKSKNTLYLQMNSLRAEDTAVYYCARDLGEAGGMDVWGQGTTVTVSS
VL: AIQLTQSPSSLSASVGDRVTITCRASQGISSYLAWYQQKPGKAPKLLIYAASTLQSGVPSRFSGSGSGTDFTLTISSLQPEDFATYYCQQLNSYPPAFGGGTKVEIK
B17: BD-368-2 (antibody, V domains shown)
VH: EVQLLESGGGVVQPGGSLRLSCAASGFAFTTYAMNWVRQAPGRGLEWVSAISDGGGSAYYADSVKGRFTISRDNSKNTLYLQMNSLRAEDTAVYYCAKTRGRGLYDYVWGSKDYWGQGTLVTVSS
VL: B16 VL
B18: C121 (antibody, V domains shown)
VH: not shown
VL: QSALTQPASVSGSPGQSITISCTGTSSDVGSYNLVSWYQQHPGKAPKLMIYEGSKRPSGVSNRFSGSKSGNTASLTISGLQAEDEADYYCCSYAGSSTLVFGGGTKLTVL

Target: SARS-CoV-2 hexaproline stabilized pre-fusion spike glycoprotein (S6P) (SARS-CoV-2, ancestral (Wuhan-Hu-1 …, UniProt P0DTC2, stabilised))

Binder	binding result
B1	binds
B2	binds
B3	binds
B4	binds
B5	binds
B6	binds
B7	binds
B8	binds
B9	binds
B10	binds
B11	binds
B12	binds
B13	binds
B14	binds
B15	binds
B16	binds
B17	binds
B18	binds
